{"source": "paper PMC3432176", "origin": "cited, not measured here", "target": "preMADH (Paracoccus denitrificans) (UniProt P22619)", "sequence (P22619 58-188, chain 1 of 2)": "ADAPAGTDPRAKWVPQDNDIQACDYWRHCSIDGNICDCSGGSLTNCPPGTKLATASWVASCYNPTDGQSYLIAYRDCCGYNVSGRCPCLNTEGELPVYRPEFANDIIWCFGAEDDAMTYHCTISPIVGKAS", "sequence (P29894 29-417, chain 2 of 2, further chain)": "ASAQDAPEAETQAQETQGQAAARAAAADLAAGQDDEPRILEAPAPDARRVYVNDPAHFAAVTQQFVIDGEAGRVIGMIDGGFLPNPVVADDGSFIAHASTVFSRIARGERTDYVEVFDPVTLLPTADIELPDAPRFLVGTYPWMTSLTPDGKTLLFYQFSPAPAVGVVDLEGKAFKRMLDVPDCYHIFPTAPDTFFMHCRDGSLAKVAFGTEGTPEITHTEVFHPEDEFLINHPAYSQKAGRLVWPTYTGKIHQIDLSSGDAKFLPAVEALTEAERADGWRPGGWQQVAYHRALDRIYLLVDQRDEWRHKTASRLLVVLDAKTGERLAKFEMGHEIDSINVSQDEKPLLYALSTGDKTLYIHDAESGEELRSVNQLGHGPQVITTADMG", "assay": "kinetics", "data": [{"substance": "MauG (from UniProt Q51658)", "values": [{"measurement": "Kd", "result": "< 1.5", "unit": "µM"}]}]}
